Reference: patent publication US12043670B2, “Anti-BCMA antibody-drug conjugates and methods of use” (Eisai R&D Management Co., Ltd., priority 2020, dated 2024)

Assay: ThermoFluor thermostability (Tm)
Assay type: physicochemical
Details: Fab fragment
[1] = light chain clone paired with heavy chain AB200_R1_VH32

B1: AB200-R1H32-R2Vk40 (antibody)
heavy: QVQLVQSGAEVKKPGSSVKVSCKASGGTFSNYWMHWVRQAPGQGLEWMGATYRSHSDTYYNQKFKSRVTITADKSTSTAYMELSSLRSEDTAVYYCARGAIYHGYDVIDNWGQGTLVTVSSASTKGPSVFPLAPSSKSTSGGTAALGCLVKDYFPEPVTVSWNSGALTSGVHTFPAVLQSSGLYSLSSVVTVPSSSLGTQTYICNVNHKPSNTKVDKKVEPKSC
light: DIQMTQSPSSLSASVGDRVTITCRASQSISSYINWYQQKPGKAPKLLIYATSNIQSGVPSRFSGSGSGTDFTLTISSLQPEDFATYYCQQYRRIPWTFGQGTKLEIKRTVAAPSVFIFPPSDEQLKSGTASVVCLLNNFYPREAKVQWKVDNALQSGNSQESVTEQDSKDSTYSLSSTLTLSKADYEKHKVYACEVTHQGLSSPVTKSFNRGEC
[1]
  Tm: 76.379 °C

B2: AB200-R1H32-R2Vk2 (antibody)
heavy: QVQLVQSGAEVKKPGSSVKVSCKASGGTFSNYWMHWVRQAPGQGLEWMGATYRSHSDTYYNQKFKSRVTITADKSTSTAYMELSSLRSEDTAVYYCARGAIYHGYDVIDNWGQGTLVTVSSASTKGPSVFPLAPSSKSTSGGTAALGCLVKDYFPEPVTVSWNSGALTSGVHTFPAVLQSSGLYSLSSVVTVPSSSLGTQTYICNVNHKPSNTKVDKKVEPKSC
light: DIQMTQSPSSLSASVGDRVTITCRASQSISSYINWYQQKPGKAPKLLIYAASSLQSGVPSRFSGSGSGTDFTLTISSLQPEDFATYYCQQFRKLPWSFGQGTKLEIKRTVAAPSVFIFPPSDEQLKSGTASVVCLLNNFYPREAKVQWKVDNALQSGNSQESVTEQDSKDSTYSLSSTLTLSKADYEKHKVYACEVTHQGLSSPVTKSFNRGEC
[1]
  Tm: 79.715 °C

B3: AB200-R1H32-R2Vk17 (antibody)
heavy: QVQLVQSGAEVKKPGSSVKVSCKASGGTFSNYWMHWVRQAPGQGLEWMGATYRSHSDTYYNQKFKSRVTITADKSTSTAYMELSSLRSEDTAVYYCARGAIYHGYDVIDNWGQGTLVTVSSASTKGPSVFPLAPSSKSTSGGTAALGCLVKDYFPEPVTVSWNSGALTSGVHTFPAVLQSSGLYSLSSVVTVPSSSLGTQTYICNVNHKPSNTKVDKKVEPKSC
light: DIQMTQSPSSLSASVGDRVTITCRASQSISSYINWYQQKPGKAPKLLIYAASSLQSGVPSRFSGSGSGTDFTLTISSLQPEDFATYYCQQYRKIPWSFGQGTKLEIKRTVAAPSVFIFPPSDEQLKSGTASVVCLLNNFYPREAKVQWKVDNALQSGNSQESVTEQDSKDSTYSLSSTLTLSKADYEKHKVYACEVTHQGLSSPVTKSFNRGEC
[1]
  Tm: 76.415 °C

B4: AB200-R1H32-R2Vk42 (antibody)
heavy: QVQLVQSGAEVKKPGSSVKVSCKASGGTFSNYWMHWVRQAPGQGLEWMGATYRSHSDTYYNQKFKSRVTITADKSTSTAYMELSSLRSEDTAVYYCARGAIYHGYDVIDNWGQGTLVTVSSASTKGPSVFPLAPSSKSTSGGTAALGCLVKDYFPEPVTVSWNSGALTSGVHTFPAVLQSSGLYSLSSVVTVPSSSLGTQTYICNVNHKPSNTKVDKKVEPKSC
light: DIQMTQSPSSLSASVGDRVTITCRASQSISSYINWYQQKPGKAPKLLIYATSNIQSGVPSRFSGSGSGTDFTLTISSLQPEDFATYYCQQYRKIPWSFGQGTKLEIKRTVAAPSVFIFPPSDEQLKSGTASVVCLLNNFYPREAKVQWKVDNALQSGNSQESVTEQDSKDSTYSLSSTLTLSKADYEKHKVYACEVTHQGLSSPVTKSFNRGEC
[1]
  Tm: 75.027 °C

B5: AB200-R1H32-R2Vk4 (antibody)
heavy: QVQLVQSGAEVKKPGSSVKVSCKASGGTFSNYWMHWVRQAPGQGLEWMGATYRSHSDTYYNQKFKSRVTITADKSTSTAYMELSSLRSEDTAVYYCARGAIYHGYDVIDNWGQGTLVTVSSASTKGPSVFPLAPSSKSTSGGTAALGCLVKDYFPEPVTVSWNSGALTSGVHTFPAVLQSSGLYSLSSVVTVPSSSLGTQTYICNVNHKPSNTKVDKKVEPKSC
light: DIQMTQSPSSLSASVGDRVTITCRASQSISSYLNWYQQKPGKAPKLLIYATSNIQSGVPSRFSGSGSGTDFTLTISSLQPEDFATYYCQQFRKLPWSFGQGTKLEIKRTVAAPSVFIFPPSDEQLKSGTASVVCLLNNFYPREAKVQWKVDNALQSGNSQESVTEQDSKDSTYSLSSTLTLSKADYEKHKVYACEVTHQGLSSPVTKSFNRGEC
[1]
  Tm: 79.449 °C

B6: AB200-R1H32-R2Vk7 (antibody)
heavy: QVQLVQSGAEVKKPGSSVKVSCKASGGTFSNYWMHWVRQAPGQGLEWMGATYRSHSDTYYNQKFKSRVTITADKSTSTAYMELSSLRSEDTAVYYCARGAIYHGYDVIDNWGQGTLVTVSSASTKGPSVFPLAPSSKSTSGGTAALGCLVKDYFPEPVTVSWNSGALTSGVHTFPAVLQSSGLYSLSSVVTVPSSSLGTQTYICNVNHKPSNTKVDKKVEPKSC
light: DIQMTQSPSSLSASVGDRVTITCRASQSISSYINWYQQKPGKAPKLLIYATSNIQSGVPSRFSGSGSGTDFTLTISSLQPEDFATYYCQQFRKLPWSFGQGTKLEIKRTVAAPSVFIFPPSDEQLKSGTASVVCLLNNFYPREAKVQWKVDNALQSGNSQESVTEQDSKDSTYSLSSTLTLSKADYEKHKVYACEVTHQGLSSPVTKSFNRGEC
[1]
  Tm: 79.001 °C

B7: AB200-R1H32-R2Vk8 (antibody)
heavy: QVQLVQSGAEVKKPGSSVKVSCKASGGTFSNYWMHWVRQAPGQGLEWMGATYRSHSDTYYNQKFKSRVTITADKSTSTAYMELSSLRSEDTAVYYCARGAIYHGYDVIDNWGQGTLVTVSSASTKGPSVFPLAPSSKSTSGGTAALGCLVKDYFPEPVTVSWNSGALTSGVHTFPAVLQSSGLYSLSSVVTVPSSSLGTQTYICNVNHKPSNTKVDKKVEPKSC
light: DIQMTQSPSSLSASVGDRVTITCRASQSISSYINWYQQKPGKAPKLLIYATSNLQIGVPSRFSGSGSGTDFTLTISSLQPEDFATYYCQQFRKLPWSFGQGTKLEIKRTVAAPSVFIFPPSDEQLKSGTASVVCLLNNFYPREAKVQWKVDNALQSGNSQESVTEQDSKDSTYSLSSTLTLSKADYEKHKVYACEVTHQGLSSPVTKSFNRGEC
[1]
  Tm: 80.002 °C

B8: AB200-R1H32-R2Vk41 (antibody)
heavy: QVQLVQSGAEVKKPGSSVKVSCKASGGTFSNYWMHWVRQAPGQGLEWMGATYRSHSDTYYNQKFKSRVTITADKSTSTAYMELSSLRSEDTAVYYCARGAIYHGYDVIDNWGQGTLVTVSSASTKGPSVFPLAPSSKSTSGGTAALGCLVKDYFPEPVTVSWNSGALTSGVHTFPAVLQSSGLYSLSSVVTVPSSSLGTQTYICNVNHKPSNTKVDKKVEPKSC
light: DIQMTQSPSSLSASVGDRVTITCRASQSISSYINWYQQKPGKAPKLLIYATSNIQSGVPSRFSGSGSGTDFTLTISSLQPEDFATYYCQQFRRLPWTFGQGTKLEIKRTVAAPSVFIFPPSDEQLKSGTASVVCLLNNFYPREAKVQWKVDNALQSGNSQESVTEQDSKDSTYSLSSTLTLSKADYEKHKVYACEVTHQGLSSPVTKSFNRGEC
[1]
  Tm: 79.593 °C

B9: AB200-(2Vk8)_R2-CDR1-hs-v4 (antibody)
heavy: QVQLVQSGAEVKKPGSSVKVSCKASGGTFSSYAISWVRQAPGQGLEWMGATYRSQSDTFYNQKFKSRVTITADKSTSTAYMELSSLRSEDTAVYYCARGAVYHGYDVIDNWGQGTLVTVSSASTKGPSVFPLAPSSKSTSGGTAALGCLVKDYFPEPVTVSWNSGALTSGVHTFPAVLQSSGLYSLSSVVTVPSSSLGTQTYICNVNHKPSNTKVDKKVEPKSC
light: DIQMTQSPSSLSASVGDRVTITCRASQSISSYINWYQQKPGKAPKLLIYATSNLQIGVPSRFSGSGSGTDFTLTISSLQPEDFATYYCQQFRKLPWSFGQGTKLEIKRTVAAPSVFIFPPSDEQLKSGTASVVCLLNNFYPREAKVQWKVDNALQSGNSQESVTEQDSKDSTYSLSSTLTLSKADYEKHKVYACEVTHQGLSSPVTKSFNRGEC
Heavy chain clone paired with light chain AB200-(2Vk8)
  Tm: 76.495 °C

B10: AB200-R1H32-R2Vk6 (antibody)
heavy: QVQLVQSGAEVKKPGSSVKVSCKASGGTFSNYWMHWVRQAPGQGLEWMGATYRSHSDTYYNQKFKSRVTITADKSTSTAYMELSSLRSEDTAVYYCARGAIYHGYDVIDNWGQGTLVTVSSASTKGPSVFPLAPSSKSTSGGTAALGCLVKDYFPEPVTVSWNSGALTSGVHTFPAVLQSSGLYSLSSVVTVPSSSLGTQTYICNVNHKPSNTKVDKKVEPKSC
light: DIQMTQSPSSLSASVGDRVTITCRASQSISSYINWYQQKPGKAPKLLIYATSNLQSGVPSRFSGSGSGTDFTLTISSLQPEDFATYYCQQFRKLPWSFGQGTKLEIKRTVAAPSVFIFPPSDEQLKSGTASVVCLLNNFYPREAKVQWKVDNALQSGNSQESVTEQDSKDSTYSLSSTLTLSKADYEKHKVYACEVTHQGLSSPVTKSFNRGEC
[1]
  Tm: 79.773 °C

B11: AB200-R1H32-R2Vk43 (antibody)
heavy: QVQLVQSGAEVKKPGSSVKVSCKASGGTFSNYWMHWVRQAPGQGLEWMGATYRSHSDTYYNQKFKSRVTITADKSTSTAYMELSSLRSEDTAVYYCARGAIYHGYDVIDNWGQGTLVTVSSASTKGPSVFPLAPSSKSTSGGTAALGCLVKDYFPEPVTVSWNSGALTSGVHTFPAVLQSSGLYSLSSVVTVPSSSLGTQTYICNVNHKPSNTKVDKKVEPKSC
light: DIQMTQSPSSLSASVGDRVTITCRASQSISSYINWYQQKPGKAPKLLIYATSNIQSGVPSRFSGSGSGTDFTLTISSLQPEDFATYYCQQFRKIPWTFGQGTKLEIKRTVAAPSVFIFPPSDEQLKSGTASVVCLLNNFYPREAKVQWKVDNALQSGNSQESVTEQDSKDSTYSLSSTLTLSKADYEKHKVYACEVTHQGLSSPVTKSFNRGEC
[1]
  Tm: 78.820 °C

B12: AB200-R1H32-R2Vk47 (antibody)
heavy: QVQLVQSGAEVKKPGSSVKVSCKASGGTFSNYWMHWVRQAPGQGLEWMGATYRSHSDTYYNQKFKSRVTITADKSTSTAYMELSSLRSEDTAVYYCARGAIYHGYDVIDNWGQGTLVTVSSASTKGPSVFPLAPSSKSTSGGTAALGCLVKDYFPEPVTVSWNSGALTSGVHTFPAVLQSSGLYSLSSVVTVPSSSLGTQTYICNVNHKPSNTKVDKKVEPKSC
light: DIQMTQSPSSLSASVGDRVTITCRASQSISSYINWYQQKPGKAPKLLIYATSNLQIGVPSRFSGSGSGTDFTLTISSLQPEDFATYYCQQYRKIPWSFGQGTKLEIKRTVAAPSVFIFPPSDEQLKSGTASVVCLLNNFYPREAKVQWKVDNALQSGNSQESVTEQDSKDSTYSLSSTLTLSKADYEKHKVYACEVTHQGLSSPVTKSFNRGEC
[1]
  Tm: 75.976 °C
